According to the supplement of paper PMC10126150:
± gives the standard deviation of the averaged measurements.

system: ATP; assay: switch fluorescence ratio, 500 uM ATP over buffer (Cy3 cluster intensity, sum of 5 cycles each) (fold (ratio)); higher = stronger signal-on switching upon ATP binding; sequences stand for … in TCGTCGGCAGCGTCAGATGTGTATAAGAGACAGTTTTTTTTTTTTTTTTTTTTTTTTT…TC; conditions: aptamer strand: ATP DNA aptamer (quencher-CACCTGGGGGAGTATTGCGGAGGAAGG + anchor), 100 nM annealed; ATP concentration: 500 uM
How it was run: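 Clusters with intensities outside 100-1000 RFU were excluded. The remaining Cy3-labelled switching-strand clusters on a modified Illumina MiSeq flow-cell had been annealed to 100 nM quencher-labelled ATP aptamer and imaged in selection buffer, then after 15 min with 500 uM ATP at 22 °C, for five cycles separated by NaOH stripping and re-annealing. The fluorescence ratio, averaged per switch-domain sequence, is each cluster's summed target-cycle Cy3 intensity over its summed buffer-cycle Cy3 intensity.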
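Also: ATP exposure 15 min at 22 °C before imaging.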

| Sequence | switch fluorescence ratio |
| --- | --- |
| GAACCCCCTC | 1.21 ± 0.18 |
| GGTATAAATG | 1 ± 0.019 |
| GGGTCCTTTT | 1 ± 0.021 |
| GTTTATAAAG | 0.9899 ± 0.0023 |
| TTGCGAGGGG | 0.9778 ± 0.006 |
| ATCAAGTCGG | 0.969 ± 0.02 |
| GCATCACGTT | 1 ± 0.029 |
| GGGGTGCAGC | 1.05 ± 0.02 |
| TAAAAAAGTG | 1.02 ± 0.02 |
| TTGACGAGCG | 1.13 ± 0.051 |
| AGGGAGGAAA | 1 ± 0.036 |
| CCAGATATGG | 1.01 ± 0.041 |
| AATTCTAAAC | 0.9881 ± 0.0038 |
| CTTTTAGGGT | 0.996 ± 0.024 |
| AGGGACGCTT | 1.14 ± 0.12 |
| GAAGTCATTT | 0.9828 ± 0.0031 |
| AATTTGGCCT | 1.05 ± 0.035 |
| TGGCGCACAA | 1.07 ± 0.013 |
| AGCTTTGGTA | 1.016 ± 0.0026 |
| TGTATATAGG | 0.955 ± 0.021 |
| AGAGTAATCG | 0.983 ± 0.07 |
| GGTTCGGGGA | 0.98 ± 0.019 |
| GTTTTCCGGG | 1.01 ± 0.027 |
| GAGCTCAGTG | 1.002 ± 0.0069 |
| CACCTCTTAC | 1.271 ± 0.0029 |

| Sequence | switch fluorescence ratio |
| --- | --- |
| TTTCGTAGGA | 1.28 ± 0.35 |
| GTTGACTCAT | 0.97827 ± 0.00051 |
| CCGGGGTTTG | 0.998 ± 0.019 |
| AGGGTCGATG | 1.07 ± 0.073 |
| TGATAAAACG | 0.992 ± 0.041 |
| GAGTAGAAAG | 0.9989 ± 0.0061 |
| CCCTCACTTA | 1.08 ± 0.049 |
| TGGTTGTCCG | 1.06 ± 0.059 |
| GATGCCGGGG | 1.05 ± 0.095 |
| AAAAGCCGGT | 1.02 ± 0.034 |
| TCAAACGCTT | 1.12 ± 0.15 |
| CGGATAGAGC | 0.9951 ± 0.0085 |
| GGGGGCCCCA | 1.01 ± 0.022 |
| GCGTATATAA | 1.04 ± 0.044 |
| ATCGAATGCT | 1.001 ± 0.0096 |
| GTTGTTGTTG | 0.996 ± 0.045 |
| TTACACTGTG | 1.001 ± 0.0054 |
| ACGGCTTTTG | 1.025 ± 0.009 |
| TGAGGAGAAT | 0.996 ± 0.028 |
| AGGAAGCAG | 1.003 ± 0.0027 |
| ATTACGGCAG | 1.02 ± 0.059 |
| AGAAGGATTA | 1 ± 0.017 |
| TTTAGACA | 1.02 ± 0.053 |
| AAGGGTTATT | 1.15 ± 0.16 |
| CGTAACTTGG | 1.01 ± 0.029 |

| Sequence | switch fluorescence ratio |
| --- | --- |
| ATGGTAGATA | 1.02 ± 0.0041 |
| AAAGAGACAG | 0.993 ± 0.0046 |
| TAGAACCTCG | 1.02 ± 0.057 |
| AGGTATTGCT | 0.9854 ± 0.0091 |
| TGCAACACAT | 1.03 ± 0.029 |
| AAGTTTAAAT | 0.999 ± 0.02 |
| GGCCGGCCAG | 1.01 ± 0.047 |
| AGGGGTATAT | 1.02 ± 0.028 |
| TTTTAGTCTA | 0.9809 ± 0.0021 |
| GATGAGGTAT | 0.9899 ± 0.002 |
| TAGAAATTCG | 1.28 ± 0.5 |
| AATGTTTCGG | 0.977 ± 0.022 |
| CCAGTTACGG | 1.032 ± 0.01 |
| AGGGGTGGTT | 0.9581 ± 0.0017 |
| GTTAAGGGGC | 0.996 ± 0.017 |
| TTCTGGTGAT | 0.999 ± 0.021 |
| CGGGTATGGC | 1.02 ± 0.063 |
| GCTTCCAGTT | 0.995 ± 0.035 |
| GGTTTGCAGG | 0.967 ± 0.05 |
| GCTGGGACAG | 0.999 ± 0.032 |
| CTTGTGGCTG | 1.031 ± 0.0033 |
| GTTTTTGGGT | 0.984 ± 0.033 |
| TTTGAGATCT | 0.989 ± 0.027 |
| TGCAGTTTGT | 0.9929 ± 0.0065 |
| ATTTAGTAGT | 0.994 ± 0.057 |

| Sequence | switch fluorescence ratio |
| --- | --- |
| TTCGGCGGTA | 0.995 ± 0.011 |
| ATGTGGTAGC | 0.9523 ± 0.004 |
| AACAGTACAC | 1.22 ± 0.023 |
| AGGTTAAGGT | 1.01 ± 0.02 |
| TAAACCGGTA | 1.03 ± 0.031 |
| TCCATTGGTG | 1.2 ± 0.025 |
| AAGCGCGAGG | 1.03 ± 0.022 |
| AAGAACGGTA | 1.06 ± 0.043 |
| AGATTAAACA | 1.02 ± 0.032 |
| GAGGCATTTT | 1.09 ± 0.089 |
| CGCGTGTGTG | 1.02 ± 0.038 |
| CGTATAAGTT | 0.937 ± 0.018 |
| TTGTTCTGGA | 0.977 ± 0.056 |
| ACGATTTATC | 1.01 ± 0.016 |
| TTGGCACGTG | 0.985 ± 0.061 |
| AGGTTTTTGC | 1.02 ± 0.02 |
| AAGTTAGGGT | 0.999 ± 0.021 |
| TCAAATCCTG | 1.05 ± 0.047 |
| TCTGTTAGTG | 1.03 ± 0.045 |
| AGTCTAAATT | 1.02 ± 0.011 |
| CGAGAGTGCG | 0.962 ± 0.023 |
| TTGCTGGTTG | 1.01 ± 0.03 |
| GTTGGGAGCA | 1.004 ± 0.0072 |
| TCTAACAGCC | 1.06 ± 0.028 |
| GGATGCAGC | 0.992 ± 0.024 |
